In patent publication US20150094211, “POLYMERASE COMPOSITIONS, METHODS OF MAKING AND USING SAME” (LIFE TECHNOLOGIES CORPORATION, published 2015):

What was measured:
Settings in all cases: label: fluorescein-dT at N (position 34); hairpin with 5' overhang
[1] = target: T1, Bst DNA polymerase D480R (LR1; D775R in full-length numbering) (D480R); assay: fluorescence dissociation with excess hairpin oligo 173 competitor (SEQ 22); 30 mM Tris pH 7.5, 20 mM NaCl; mutant dissociates slower
T1 chain: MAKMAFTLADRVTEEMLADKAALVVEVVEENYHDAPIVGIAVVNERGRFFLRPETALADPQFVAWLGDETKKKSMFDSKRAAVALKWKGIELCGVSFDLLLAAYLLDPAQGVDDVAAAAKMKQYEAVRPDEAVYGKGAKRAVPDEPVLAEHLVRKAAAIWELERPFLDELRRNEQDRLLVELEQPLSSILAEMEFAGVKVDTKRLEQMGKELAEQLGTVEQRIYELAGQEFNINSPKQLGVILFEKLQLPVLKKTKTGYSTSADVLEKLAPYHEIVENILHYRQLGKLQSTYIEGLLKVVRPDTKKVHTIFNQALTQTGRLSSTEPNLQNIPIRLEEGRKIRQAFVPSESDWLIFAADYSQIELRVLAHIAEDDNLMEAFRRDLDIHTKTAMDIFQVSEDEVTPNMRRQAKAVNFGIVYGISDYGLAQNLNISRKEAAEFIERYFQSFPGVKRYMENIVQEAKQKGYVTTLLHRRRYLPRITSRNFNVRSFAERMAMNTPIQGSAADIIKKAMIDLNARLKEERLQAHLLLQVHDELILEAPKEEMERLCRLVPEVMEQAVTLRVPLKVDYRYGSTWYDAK
Procedure: (§1) To perform the assay, reactions (75 μl) containing 30 mM Tris (pH 7.5), 20 mM NaCl, 50 nM oligo 221, and ˜10-200 nM partially polymerase samples (prepared according to Example 1) were assembled in 96-well plates. Baseline readings were then taken on the spectrophotometer using 490 nm excitation and 525 nm emission wavelengths. The 173 competitor oligo (2 μM final concentration) was then rapidly added to each well and plates were rapidly returned to the spectrophotometer for readings every 30 seconds for 5 minutes. The dissociation rate was calculated by fitting the data to a one-phase exponential decay equation using PrismGraph® according to the following formula: […]
(§2) Various exemplary mutations were introduced via site-directed mutagenesis into exemplary reference polymerases to generate modified polymerases. In this example, reference polymerase SEQ ID NO: 2 was modified to contain a further amino acid mutation (D480R). Reference polymerase SEQ ID NO: 15 was also modified to contain a further amino acid mutation (D732R). Additionally, reference polymerase SEQ ID NO: 18 was modified to contain amino acid mutation (D505R). The modified polymerases were sequence verified, and expressed essentially according to the procedure of Example 1. The modified polymerases were then assayed to measure dissociation rate constant essentially according to the procedure of Example 2.

[2] = target: Klenow fragment D505R (LR1) (UniProt P00582 SEQ:2-606, D505R); assay: as above
Procedure: as §1, §2

[3] = target: Taq DNA polymerase D732R (LR1 Taq) (UniProt P19821 SEQ:1-832, D732R); assay: as above
Procedure: as §1
(§3) Various exemplary mutations were introduced via site-directed mutagenesis into an exemplary reference polymerase (wild-type Taq DNA polymerase SEQ ID NO: 15) to generate a series of modified Taq DNA polymerases. In this example, reference polymerase, SEQ ID NO: 15 was modified to contain a single amino acid mutation selected from D732R, E745Q or E471K. Each modified polymerase was sequence verified, and expressed essentially according to Example 1. The modified polymerases were then assayed to measure dissociation rate constant essentially according to Example 2.

[4] = target: T2, Bst DNA polymerase F448K (labelled 488K in the text for FIG. 2) (F448K); assay: dissociation time constant at varying salt; values only in figure; mutation printed as 488K and F448K
T2 chain: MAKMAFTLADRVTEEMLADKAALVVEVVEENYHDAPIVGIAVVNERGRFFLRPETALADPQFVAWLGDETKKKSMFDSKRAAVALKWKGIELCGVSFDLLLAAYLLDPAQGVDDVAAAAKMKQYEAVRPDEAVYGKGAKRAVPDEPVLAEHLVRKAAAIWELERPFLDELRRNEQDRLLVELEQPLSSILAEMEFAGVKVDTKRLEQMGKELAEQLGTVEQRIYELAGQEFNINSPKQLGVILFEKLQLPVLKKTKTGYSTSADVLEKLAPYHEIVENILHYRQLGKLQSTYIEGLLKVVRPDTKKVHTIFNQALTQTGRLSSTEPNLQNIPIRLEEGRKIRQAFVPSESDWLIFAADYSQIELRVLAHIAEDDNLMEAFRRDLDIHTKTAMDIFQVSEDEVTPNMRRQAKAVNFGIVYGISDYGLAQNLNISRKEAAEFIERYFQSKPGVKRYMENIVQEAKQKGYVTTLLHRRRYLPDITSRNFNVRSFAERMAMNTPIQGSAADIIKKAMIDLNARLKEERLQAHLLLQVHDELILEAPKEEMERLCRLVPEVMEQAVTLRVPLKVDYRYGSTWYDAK
Procedure: (§4) Dissociation is measured by the decrease in fluorescence that occurs when the Bst polymerase dissociates from the template. Dissociation is initiated by adding a vast excess of unlabeled, competitor DNA (hairpin oligo 173) having the following nucleotide sequence:
as §1

Bst DNA polymerase G425R = target: T3, Bst DNA polymerase G425R (G425R); assay: dissociation time constant at varying salt; values only in figure
T3 chain: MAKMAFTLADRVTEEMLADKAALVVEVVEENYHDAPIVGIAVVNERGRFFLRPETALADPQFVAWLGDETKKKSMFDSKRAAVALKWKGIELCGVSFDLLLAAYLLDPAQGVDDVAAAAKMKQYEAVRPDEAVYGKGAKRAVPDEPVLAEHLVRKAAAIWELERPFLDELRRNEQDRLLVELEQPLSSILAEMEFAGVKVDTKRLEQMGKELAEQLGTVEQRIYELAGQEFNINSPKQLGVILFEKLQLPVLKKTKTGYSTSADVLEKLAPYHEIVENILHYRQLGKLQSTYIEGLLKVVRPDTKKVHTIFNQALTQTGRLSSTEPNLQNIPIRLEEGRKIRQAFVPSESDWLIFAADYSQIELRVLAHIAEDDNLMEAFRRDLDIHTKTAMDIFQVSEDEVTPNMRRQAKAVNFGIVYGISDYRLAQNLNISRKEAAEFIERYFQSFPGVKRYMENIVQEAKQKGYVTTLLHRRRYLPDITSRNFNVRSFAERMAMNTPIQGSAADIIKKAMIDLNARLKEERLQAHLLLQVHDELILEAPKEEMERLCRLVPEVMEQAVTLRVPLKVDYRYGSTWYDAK
Procedure: as §4, §1

Bst DNA polymerase D144K = target: T4, Bst DNA polymerase D144K (D144K); assay: as above
T4 chain: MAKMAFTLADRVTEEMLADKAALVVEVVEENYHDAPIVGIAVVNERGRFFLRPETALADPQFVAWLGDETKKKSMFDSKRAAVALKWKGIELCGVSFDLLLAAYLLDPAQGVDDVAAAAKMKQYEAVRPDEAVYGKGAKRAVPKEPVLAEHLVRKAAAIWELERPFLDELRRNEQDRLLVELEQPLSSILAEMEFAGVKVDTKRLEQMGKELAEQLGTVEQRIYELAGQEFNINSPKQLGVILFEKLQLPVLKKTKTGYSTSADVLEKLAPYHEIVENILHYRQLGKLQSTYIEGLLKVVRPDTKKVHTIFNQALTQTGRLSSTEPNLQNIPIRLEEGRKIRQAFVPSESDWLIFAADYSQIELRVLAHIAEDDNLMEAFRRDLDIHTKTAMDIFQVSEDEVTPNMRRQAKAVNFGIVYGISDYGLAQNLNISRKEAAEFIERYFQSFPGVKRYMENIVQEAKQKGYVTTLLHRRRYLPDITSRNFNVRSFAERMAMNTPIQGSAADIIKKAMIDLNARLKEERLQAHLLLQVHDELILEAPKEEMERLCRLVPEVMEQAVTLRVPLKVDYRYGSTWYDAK
Procedure: as §4, §1

Taq DNA polymerase E745Q = Taq DNA polymerase E745Q (UniProt P19821 SEQ:1-832, E745Q); assay: fluorescence dissociation with excess hairpin oligo 173 competitor (SEQ 22); mutant dissociates slower
Procedure: as §1, §3

Taq DNA polymerase E471K = Taq DNA polymerase E471K (UniProt P19821 SEQ:1-832, E471K); assay: as above
Procedure: as §1, §3

[5] = target: Klenow fragment (wild type) (UniProt P00582 SEQ:2-606); assay: reference; dissociates 13-fold faster than D505R; rate constant only in figure
[6] = target: T5, Bst DNA polymerase large fragment (Bst 1.0, reference); assay: reference; dissociates 4.7-fold faster than D480R; rate constant only in figure
T5 chain: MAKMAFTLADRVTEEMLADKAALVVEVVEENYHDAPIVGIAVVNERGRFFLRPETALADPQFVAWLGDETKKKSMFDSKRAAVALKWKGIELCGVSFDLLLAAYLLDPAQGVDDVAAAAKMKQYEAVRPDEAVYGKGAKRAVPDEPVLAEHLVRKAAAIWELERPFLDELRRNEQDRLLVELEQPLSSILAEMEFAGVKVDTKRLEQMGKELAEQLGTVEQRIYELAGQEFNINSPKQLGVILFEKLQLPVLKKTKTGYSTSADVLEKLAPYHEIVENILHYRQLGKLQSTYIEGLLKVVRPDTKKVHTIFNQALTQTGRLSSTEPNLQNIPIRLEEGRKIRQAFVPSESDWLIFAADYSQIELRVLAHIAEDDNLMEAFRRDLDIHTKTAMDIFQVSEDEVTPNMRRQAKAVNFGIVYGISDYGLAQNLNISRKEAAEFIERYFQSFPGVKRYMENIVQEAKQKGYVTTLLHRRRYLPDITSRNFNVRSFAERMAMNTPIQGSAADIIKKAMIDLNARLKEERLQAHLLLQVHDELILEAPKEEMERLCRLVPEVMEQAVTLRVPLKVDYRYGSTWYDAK

Chain of Taq DNA polymerase E471K (P19821 whole entry E471K): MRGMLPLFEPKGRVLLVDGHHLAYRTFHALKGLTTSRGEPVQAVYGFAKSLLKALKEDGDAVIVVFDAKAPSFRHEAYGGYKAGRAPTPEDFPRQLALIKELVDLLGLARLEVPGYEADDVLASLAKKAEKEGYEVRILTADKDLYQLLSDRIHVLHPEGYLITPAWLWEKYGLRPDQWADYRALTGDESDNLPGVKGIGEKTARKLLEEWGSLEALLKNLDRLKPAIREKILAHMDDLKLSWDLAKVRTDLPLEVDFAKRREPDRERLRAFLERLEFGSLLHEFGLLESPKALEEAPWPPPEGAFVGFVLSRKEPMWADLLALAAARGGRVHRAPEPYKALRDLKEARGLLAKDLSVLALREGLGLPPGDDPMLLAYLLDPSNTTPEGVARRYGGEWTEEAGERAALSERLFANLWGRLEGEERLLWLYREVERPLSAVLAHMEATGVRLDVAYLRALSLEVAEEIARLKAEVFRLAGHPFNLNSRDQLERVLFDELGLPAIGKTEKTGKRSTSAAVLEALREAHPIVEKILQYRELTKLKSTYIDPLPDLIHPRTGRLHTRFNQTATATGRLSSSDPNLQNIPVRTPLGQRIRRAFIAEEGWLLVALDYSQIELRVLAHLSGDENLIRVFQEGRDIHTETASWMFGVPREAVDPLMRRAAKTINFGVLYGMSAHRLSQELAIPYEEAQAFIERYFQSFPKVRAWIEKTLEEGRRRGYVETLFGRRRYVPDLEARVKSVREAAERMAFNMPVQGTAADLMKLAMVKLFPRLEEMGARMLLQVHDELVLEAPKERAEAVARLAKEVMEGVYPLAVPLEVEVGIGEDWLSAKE
Chain of Taq DNA polymerase E745Q (P19821 whole entry E745Q): as the sequence (P19821 whole entry E471K) above, with K471E, E745Q counted along it
Chain of Taq DNA polymerase D732R (LR1 Taq) (P19821 whole entry D732R): as the sequence (P19821 whole entry E471K) above, with K471E, D732R counted along it

B1: oligo 221 (structured_DNA)
DNA: TTTTTTTGCAGGTGACAGGTTTTTCCTGTCACCTGC
modifications: [fluorescein-dT at 34]
In the case of B1, the binding signal [1] is reported as 4.7 fold (koff reference/koff mutant), the binding signal [2] is reported as 13 fold (koff wt/koff mutant) and the binding signal [3] is reported as 14.1 fold (koff wt/koff mutant). B1: binds [4]; binds (Bst DNA polymerase G425R); binds (Bst DNA polymerase D144K). The binding signal (Taq DNA polymerase E745Q) was 4.7 fold (koff wt/koff mutant), the binding signal (Taq DNA polymerase E471K) was 5 fold (koff wt/koff mutant) and the binding result [5] was “binds”. B1: binds [6].
